In patent publication US20240101687A1:

Key:
[1] = target: human IGF1R on cells (human) (UniProt P08069); test: FACS on MCF-7 cells (FL1-H), anti-human FITC; MFI of 2nd Ab only 4.53, untreated 2.51
[2] = target: human IGF1R on cells (human) (UniProt P08069); test: FACS on JIMT-1 cells (FL1-H), anti-human FITC; MFI of 2nd Ab only 1.89, untreated 1.36
[3] = target: human IGF1R on cells (human) (UniProt P08069); test: FACS on BT474 cells (FL1-H), anti-human FITC; MFI of 2nd Ab only 1.93, untreated 1.8

Chain of IMC-A12 (antibody) (VH): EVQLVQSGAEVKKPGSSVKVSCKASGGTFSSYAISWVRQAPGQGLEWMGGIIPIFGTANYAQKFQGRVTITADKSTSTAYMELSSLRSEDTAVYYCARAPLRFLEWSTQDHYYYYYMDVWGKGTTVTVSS
Chain of IMC-A12 (antibody) (VL): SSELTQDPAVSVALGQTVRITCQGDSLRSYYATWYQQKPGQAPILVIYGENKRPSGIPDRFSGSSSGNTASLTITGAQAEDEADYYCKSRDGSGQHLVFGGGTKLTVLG

MFI [1]: 40.1 | MFI [2]: 23 | MFI [3]: 18.3
Substance: IMC-A12 (antibody)
